Where two headings read alike, the source gives them in different places.
How the values were obtained:
[1] = target: T1, human PD-L1, full length, expressed on cells (human, UniProt Q9NZQ7 19-290); test: FACS competition with biotin-CD80/Fc on HEK293/PD-L1 cells
T1 construct: also called HEK293/PD-L1 cells; HEK293/OS8/PD-L1 cells

[2] = target: T1, human PD-L1, full length, expressed on …; test: cell-based or functional assay
[3] = target: T1, human PD-L1, full length, expressed on …; test: FACS competition with biotin-PD-1/Fc on HEK293/PD-L1 cells
Source text: Using this method, we evaluated functional strength of anti-PD-L1 mAbs.

human PD-L1-ECD/His [4] = target: T2, human PD-L1-ECD/His (human, UniProt Q9NZQ7 19-238); test: ELISA on coated PD-L1/His
T2 construct: Expressed in 293-F cells; also called PD-L1/His; human PD-L1/His
T2 sequence (Q9NZQ7 19-238): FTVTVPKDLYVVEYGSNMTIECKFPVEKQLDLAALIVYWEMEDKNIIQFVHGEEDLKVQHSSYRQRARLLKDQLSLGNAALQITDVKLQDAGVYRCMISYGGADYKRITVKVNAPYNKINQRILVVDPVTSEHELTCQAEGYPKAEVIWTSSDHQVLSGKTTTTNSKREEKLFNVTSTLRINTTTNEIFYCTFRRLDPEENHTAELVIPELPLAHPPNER
Method: (§1) Briefly, 50-200 nanograms of PD-L1/His were diluted in 50 microliters of PBS and coated in each well of 96-well ELISA plates (JinCanHua, Shenzhen, China). After blocking with 3% bovine serum albumin in TBST (20 mM Tris, 150 mM NaCl, 0.05% Tween20, pH7.5) and incubating with culture supernatants of hybridoma clones, the HRP-conjugated horse anti-mouse IgG antibody (Cat. No. 7076S, Cell Signaling Technology) and tetramethylbenzidine (TMB) (Cat. No. PA107-01, TianGen, Beijing, China) were used to detect binding signals by a plate reader (PHREAstar, BMG Labtech, Germany) as light absorbance at 450 nm. The ELISA-positive clones were further verified by fluorescence-activated cell sorting (FACS). PD-L1 expression cells, HEK293/PD-L1 (10⁵ cells/well), were incubated with supernatants from hybridoma clones in V-bottom 96-well plates (Cat. No. 3897, Corning). The cell surface bound PD-L1 antibodies were detected with Dylight 649-conjugated goat anti-mouse IgG antibody (Cat. No. 405312, Biolegend, San Diego, Calif., USA) and cell fluorescence was monitored in a Guava EasyCyte 8HT flow cytometer (Millipore, USA).
(§2) The binding activities of the purified monoclonal antibodies were evaluated in ELISA and FACS assays as described in previous sections. The dose-dependent binding curves in ELISA and FACS were used to compare mAb potency.

[5] = target: T1, human PD-L1, full length, expressed on …; test: cell-based or functional assay; remark: listed apart in the source
[6] = target: T1, human PD-L1, full length, expressed on …; test: FACS on HEK293/PD-L1 cells
Method: as §1, §2

[7] = target: T1, human PD-L1, full length, expressed on …; test: cell-based or functional assay; remark: listed apart in the source
human PD-L1-ECD/His [8] = target: T2, human PD-L1-ECD/His; test: SPR (BIAcore T-200), human PD-L1/His on CM5 chip, Fab injected
Method: (§3) For affinity determinations of anti-PD-L1 Fabs, SPR assays were performed using BIAcore™ T-200 (GE Life Sciences). Briefly, human PD-L1/His was coupled to an activated CM5 biosensor chip (Cat. No. BR100530, GE Life Sciences) to achieve approximately 100-200 response units (RU), followed by blocking un-reacted groups with 1M ethanolamine. A serial dilutions of 0.12 nM to 90 nM Fab samples were injected, mixed into the SPR running buffer (10 mM HEPES, 150 mM NaCl, 0.05% Tween20, pH7.4) at 30 μL/minute, and binding responses on human PD-L1/His were calculated by substracting of RU from a blank flow-cell. Association rates (kₒₙ) and dissociation rates (koff) were calculated using the one-to-one Langmuir binding model (BIA Evaluation Software, GE Life Sciences). The equilibrium dissociation constant (Kd) was calculated as the ratio koff/kₒₙ.
For affinity determinations of anti-PD-L1 Fabs, SPR assays were conducted using BIAcore™ T-200 instrument (GE Life Sciences, Shanghai, China) as described earlier. Association rates (kₒₙ) and dissociation rates (koff) were calculated using the one-to-one Langmuir binding model (BIA Evaluation Software, GE Life Sciences). The equilibrium dissociation constant (Kd) was calculated as the ratio koff/kₒₙ.

[9] = target: T1, human PD-L1, full length, expressed on …; test: FACS competition with biotin-CD80/Fc on HEK293/PD-L1 cells; remark: listed apart in the source
[10] = target: T1, human PD-L1, full length, expressed on …; test: FACS competition with biotin-PD-1/Fc on HEK293/PD-L1 cells; remark: listed apart in the source
[11] = target: T1, human PD-L1, full length, expressed on …; test: FACS competition with biotin-CD80/Fc on HEK293/PD-L1 cells; remark: listed apart in the source
human PD-L1-ECD/His [12] = target: T2, human PD-L1-ECD/His; test: SPR (BIAcore T-200), human PD-L1/His on CM5 chip, Fab injected; remark: listed apart in the source
Method: as §3

[13] = target: T1, human PD-L1, full length, expressed on …; test: cell-based or functional assay; remark: listed apart in the source

T1 sequence (Q9NZQ7 19-290 limits assumed): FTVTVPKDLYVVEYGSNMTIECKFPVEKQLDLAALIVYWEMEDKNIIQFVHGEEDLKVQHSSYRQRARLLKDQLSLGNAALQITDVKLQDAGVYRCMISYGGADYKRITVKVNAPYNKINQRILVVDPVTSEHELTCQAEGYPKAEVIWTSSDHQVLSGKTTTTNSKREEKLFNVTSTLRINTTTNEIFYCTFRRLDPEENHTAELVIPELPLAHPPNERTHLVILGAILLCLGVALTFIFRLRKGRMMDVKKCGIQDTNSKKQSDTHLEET

B1: Murine mAb333 (antibody, V domains shown)
VH: QVQLKESGPGLVAPSQSLSITCTVSGFSLTSYGVHWVRQPPGKGLEWLGVIWAGGSTNYNSALMSRLSISKDNSKSQVVLKMNSLQTDDTAMYYCAKPYGNSAMDYWGQGTSVTVSS
VL: DILMTQSHKFMSTSVGDTVSITCKASQDVGIVVAWYQQKPGQSPKLLIYWASIRHTGVPDRFTGSGSGTDFTLTISNVQSEDLADYFCQQYSNYPLYTFGGGTKLEIK
notes: Murine hybridoma mAb; also called mu333; Mu333
Q: For B1, which IC50 [1] is on record?
A: 0.052 µg/mL

Q: And the “IL-2 release in HuT78/PD-1 cells co-cultured with HEK293/OS8/PD-L1 cells: EC50” value [2]?
A: 0.092 µg/mL

Q: What about the IC50 [3] of the same binder?
A: 0.463 µg/mL

Q: What about the EC50 (human PD-L1-ECD/His [4]) of the same binder?
A: 0.036 µg/mL

Q: And the “Inhibition of IL-2 secretion in HuT78/P3Z cells co-cultured with HEK293/PD-L1 cells: IC50” value [5]?
A: 0.021 µg/mL

Q: And the EC50 [6]?
A: 0.099 µg/mL

B2: hu333-3C2 Fab (Fab, V domains shown)
VH: EVQLVESGGGLVQPGGSLRLSCAVSGFSLTSYGVHWVRQAPGKGLEWVAVIWAGGSTNYADSVKGRFTISKDNSKNTVYLQMNSLRAEDTAVYYCAKPYGNSAMDYWGQGTLVTVSS
VL: DIQMTQSPSSLSASVGDRVTITCKASQDVGIVVAWYQQKPGKAPKLLIYWASIRHTGVPSRFSGSGSGTEFTLTISSLQPDDFATYYCQQYSNYPLYTFGQGTKVEIK
notes: Human Fab format; constant parts not restated
Q: What does the source list for B2?
A: IL-2 release in HuT78/P3Z: IC50 [7]: 0.013 µg/mL; IL-2 release in HuT78/P3Z: Max inhibition [7]: 100%; IL-2 release in HuT78/PD-1: EC50 [7]: 0.046 µg/mL; IL-2 release in HuT78/PD-1: Top line [7]: 3120 pg/mL; Kd (human PD-L1-ECD/His [8]): 8.09 pM; koff (human PD-L1-ECD/His [8]): 1.15e-05 s⁻¹; kon (human PD-L1-ECD/His [8]): 1.42e+06 M⁻¹ s⁻¹; IC50 [9]: 0.073 µg/mL; Max inhibition [9]: 99%; IC50 [10]: 0.065 µg/mL; Max inhibition [10]: 100%

B3: hu333-1A Fab (Fab, V domains shown)
VH: EVQLVESGGGLVQPGGSLRLSCAVSGFSLTSYGVHWVRQAPGKGLEWVAVIWAGGSTNYNSALMSRLTISKDNAKNSVYLQMNSLRAEDTAVYYCAKPYGNSAMDYWGQGTLVTVSS
VL: DIQMTQSPSTLSASVGDRVTITCKASQDVGIVVAWYQQKPGKAPKLLIYWASIRHTGVPSRFSGSGSGTEFTLTISSLQPDDFATYYCQQYSNYPLYTFGQGTKLEIK
notes: Human Fab format: Vh joined to human IgG2 CH1 with C232S and C233S (Kabat numbering) and a C-terminal 8xHis tag; Vk joined to the constant region of human kappa chain
Q: For B3, which IC50 [11] is on record?
A: 0.049 µg/mL

Q: What about the Kd (human PD-L1-ECD/His [12]) of the same binder?
A: 9.88 pM

Q: And the koff (human PD-L1-ECD/His [12])?
A: 1.59e-05 s⁻¹

Q: What about the kon (human PD-L1-ECD/His [12]) of the same binder?
A: 1.61e+06 M⁻¹ s⁻¹

Q: And the IC50 [3]?
A: 0.057 µg/mL

Q: And the “IL-2 release in HuT78/P3Z: IC50” value [13]?
A: 0.012 µg/mL

Q: What about the “IL-2 release in HuT78/PD-1: EC50” value [13] of the same binder?
A: 0.066 µg/mL

B4: hu333-2B Fab (Fab, V domains shown)
VH: EVQLVESGGGLVQPGGSLRLSCAVSGFSLTSYGVHWVRQAPGKGLEWVAVIWAGGSTNYVDSVKGRFTISKDNAKNSVYLQMNSLRAEDTAVYYCAKPYGNSAMDYWGQGTLVTVSS
VL: DIQMTQSPSTLSASVGDRVTITCKASQDVGIVVAWYQQKPGKAPKLLIYWASIRHTGVPSRFSGSGSGTEFTLTISSLQPDDFATYYCQQYSNYPLYTFGQGTKLEIK
notes: Human Fab format, His-tagged; constant parts not restated (as for hu333-1A)
Q: For B4, which IC50 [11] is on record?
A: 0.055 µg/mL

Q: And the Kd (human PD-L1-ECD/His [12])?
A: 1.54 pM

Q: And the koff (human PD-L1-ECD/His [12])?
A: 2.09e-06 s⁻¹

Q: What about the kon (human PD-L1-ECD/His [12]) of the same binder?
A: 1.36e+06 M⁻¹ s⁻¹

Q: What about the IC50 [3] of the same binder?
A: 0.062 µg/mL

Q: And the “IL-2 release in HuT78/P3Z: IC50” value [13]?
A: 0.011 µg/mL

Q: What about the “IL-2 release in HuT78/PD-1: EC50” value [13] of the same binder?
A: 0.054 µg/mL
